Values joined by “and” are separate entries in the source; they are usually repeats but may differ in a detail not shown here. Equal entries are not always repeated.
Key:
[1] = target: LAG-3 on Thaw-and-Use LAG-3 Effector cells; test: cell-based or functional assay
[2] = target: PD-1 in the PD-1 cell based reporter assay; test: cell-based or functional assay
Human LAG-3-His = target: T1, Human LAG-3-His (human, UniProt P18627 29-450); test: SPR (Biacore T200), as in Example 3; Experiment 2
T1 construct: Bought recombinant protein; also called Human LAG-3 protein (Acrobiosystem, 772-6BGF2-D5); not shown: His tag
T1 sequence: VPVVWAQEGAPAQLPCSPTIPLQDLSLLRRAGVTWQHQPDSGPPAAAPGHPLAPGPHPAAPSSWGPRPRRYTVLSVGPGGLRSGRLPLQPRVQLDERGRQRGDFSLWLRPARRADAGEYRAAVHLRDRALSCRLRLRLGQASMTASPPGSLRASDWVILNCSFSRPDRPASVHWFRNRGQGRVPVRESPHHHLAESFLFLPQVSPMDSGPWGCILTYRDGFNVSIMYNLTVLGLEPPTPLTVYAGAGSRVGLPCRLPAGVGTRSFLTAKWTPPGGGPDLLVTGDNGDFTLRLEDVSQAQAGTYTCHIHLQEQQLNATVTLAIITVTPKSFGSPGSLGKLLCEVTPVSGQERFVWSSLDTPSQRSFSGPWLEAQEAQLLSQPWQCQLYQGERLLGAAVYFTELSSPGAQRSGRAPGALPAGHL

Human PD-1 [3] = target: T2, Human PD-1 (human, UniProt Q15116 25-167, limits assumed); test: SPR (Biacore T200), as in Example 3; Experiment 2
T2 sequence (Q15116 25-167 limits assumed): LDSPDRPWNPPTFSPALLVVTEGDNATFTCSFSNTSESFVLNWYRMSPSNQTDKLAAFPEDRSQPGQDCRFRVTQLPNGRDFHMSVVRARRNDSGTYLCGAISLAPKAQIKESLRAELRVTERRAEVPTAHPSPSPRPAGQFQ

[4] = target: T3, PD-1 expressed on CHO cells (UniProt Q15116 25-288, limits assumed); test: flow cytometry on CHO cells expressing PD-1; Experiment 2
T3 construct: whole, on cells; also called CHO-PD-1 cells
T3 sequence (Q15116 25-288 limits assumed): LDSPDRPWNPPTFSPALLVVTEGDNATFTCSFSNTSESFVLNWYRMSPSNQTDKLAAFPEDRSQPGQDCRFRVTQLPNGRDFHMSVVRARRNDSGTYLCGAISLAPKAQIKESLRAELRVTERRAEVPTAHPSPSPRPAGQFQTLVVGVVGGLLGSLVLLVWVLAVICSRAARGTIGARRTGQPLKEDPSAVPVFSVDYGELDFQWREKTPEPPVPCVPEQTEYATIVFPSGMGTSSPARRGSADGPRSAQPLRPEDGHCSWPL

[5] = target: T4, human LAG-3 expressed on CHO-K1 cells (human, UniProt P18627 29-525); test: flow cytometry on CHO cells expressing LAG-3; Experiment 2
T4 construct: also called CHO-huLAG-3 cells; LAG-3 expressed on CHO cells
T4 sequence: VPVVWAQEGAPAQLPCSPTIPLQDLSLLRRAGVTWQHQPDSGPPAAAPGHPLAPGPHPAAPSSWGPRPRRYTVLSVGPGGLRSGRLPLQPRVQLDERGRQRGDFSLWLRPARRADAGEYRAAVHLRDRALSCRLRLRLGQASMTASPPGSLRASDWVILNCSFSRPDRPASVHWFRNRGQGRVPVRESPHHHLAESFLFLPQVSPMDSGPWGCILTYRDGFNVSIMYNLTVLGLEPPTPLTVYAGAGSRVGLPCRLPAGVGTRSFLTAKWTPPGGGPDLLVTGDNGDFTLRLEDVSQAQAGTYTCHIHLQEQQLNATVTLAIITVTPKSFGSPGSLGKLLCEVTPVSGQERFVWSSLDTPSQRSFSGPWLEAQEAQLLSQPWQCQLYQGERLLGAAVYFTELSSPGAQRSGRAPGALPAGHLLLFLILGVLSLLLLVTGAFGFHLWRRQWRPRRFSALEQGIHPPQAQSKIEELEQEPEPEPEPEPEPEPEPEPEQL
Description: To determine cell binding EC₅₀, CHO-K1 cells expressing human or cynomolgus LAG-3 were harvested and incubated with anti-LAG-3 sdAb-Fc fusion proteins at gradient concentrations, followed by fluorophore-labeled secondary antibodies against human Fc. […] The samples were then analyzed with flow cytometry. The binding and blocking curves were shown in FIG. 4 and FIG. 5, respectively.

[6] = target: T3, PD-1 expressed on CHO cells; test: flow cytometry competition; blocks PD-L1 binding to CHO-PD-1 cells; Experiment 2
LAG-3-Fc = target: T5, LAG-3-Fc (human, UniProt P18627 29-450, biotinylated (in the blocking assays)); test: flow cytometry competition; blocks LAG-3-Fc binding to MHC II on A375 cells; Experiment 2
T5 construct: Recombinant LAG-3-Fc (Acrobiosystems / R&D Systems); also called biotinylated LAG-3-Fc protein; not shown: Fc part
T5 sequence: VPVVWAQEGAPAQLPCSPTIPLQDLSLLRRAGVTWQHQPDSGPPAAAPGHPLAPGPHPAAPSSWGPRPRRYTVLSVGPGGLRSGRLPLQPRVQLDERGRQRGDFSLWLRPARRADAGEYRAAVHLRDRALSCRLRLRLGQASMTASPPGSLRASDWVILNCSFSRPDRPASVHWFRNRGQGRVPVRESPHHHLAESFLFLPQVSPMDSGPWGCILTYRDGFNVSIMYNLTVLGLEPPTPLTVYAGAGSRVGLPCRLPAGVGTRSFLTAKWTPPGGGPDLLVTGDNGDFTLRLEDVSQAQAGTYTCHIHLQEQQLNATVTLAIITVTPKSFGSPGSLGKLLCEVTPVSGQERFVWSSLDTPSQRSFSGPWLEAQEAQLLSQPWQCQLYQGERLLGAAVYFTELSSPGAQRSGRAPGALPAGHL

Human PD-1 [7] = target: T2, Human PD-1; test: SPR (Biacore T200), as in Example 3; Experiment 1
[8] = target: T3, PD-1 expressed on CHO cells; test: flow cytometry on CHO cells expressing PD-1; Experiment 1
[9] = target: T3, PD-1 expressed on CHO cells; test: flow cytometry competition; blocks PD-L1 binding to CHO-PD-1 cells; Experiment 1

Row | Binder | LAG-3 blockade reporter assay EC50 [1] [nM] | PD-1 cell based reporter assay EC50 [2] | Kd (Human LAG-3-His) [nM] | Kd (Human PD-1 [3]) [nM] | EC50 [4] [nM] | EC50 [5] [nM] | EC50 [6] [nM] | EC50 (LAG-3-Fc) [nM] | Kd (Human PD-1 [7]) [nM] | EC50 [8] [nM] | EC50 [9] [nM]
1 | BLP-34 (bispecific antibody, human IgG4 S228P, kappa, also called PD-1 x LAG-3 BABP) heavy: not shown light: EPKSSDKTHTSPPSPEVQLVESGGGLVQPGGSLRLSCAASGYIISSYCMGWFRQAPGKGLEGVAAIDSDGGTSYADSVKGRFTISKDNSKNTLYLQMNSLRAEDTAMYYCAADFCWVDEDRHLYEYNSWGQGTLVTVSSDIQMTQSPSSVSASVGDRVTITCKASQDVDTAVAWYQQKPGKAPKLLIYWASTRHTGVPSRFSGSGSGTDFTLTISSLQPEDFATYYCQQYSTFPWTFGGGTKVEIKRTVAAPSVFIFPPSDEQLKSGTASVVCLLNNFYPREAKVQWKVDNALQSGNSQESVTEQDSKDSTYSLSSTLTLSKADYEKHKVYACEVTHQGLSSPVTKSFNRGEC | 15.8 | 2.77 nM | 3.7 | 3.1 | 12.5 | 3.12 | 13.8 | 37.1 | – | – | –
2 | BLP-2 (bispecific antibody, human IgG4 S228P, kappa, also called PD-1 x LAG-3 proof-of-concept BABP) heavy: not shown light: DIQMTQSPSSVSASVGDRVTITCKASQDVDTAVAWYQQKPGKAPKLLIYWASTRHTGVPSRFSGSGSGTDFTLTISSLQPEDFATYYCQQYSTFPWTFGGGTKVEIKRTVAAPSVFIFPPSDEQLKSGTASVVCLLNNFYPREAKVQWKVDNALQSGNSQESVTEQDSKDSTYSLSSTLTLSKADYEKHKVYACEVTHQGLSSPVTKSFNRGEC | 2.04 | 5.14 nM | – | – | – | – | – | – | 4.4 | 4.29 | 3.2
3 | BLP-3 (bispecific antibody, human IgG4 S228P, kappa, also called PD-1 x LAG-3 proof-of-concept BABP) heavy: not shown light: DIQMTQSPSSVSASVGDRVTITCKASQDVDTAVAWYQQKPGKAPKLLIYWASTRHTGVPSRFSGSGSGTDFTLTISSLQPEDFATYYCQQYSTFPWTFGGGTKVEIKRTVAAPSVFIFPPSDEQLKSGTASVVCLLNNFYPREAKVQWKVDNALQSGNSQESVTEQDSKDSTYSLSSTLTLSKADYEKHKVYACEVTHQGLSSPVTKSFNRGEC | 1.45 | 5.92 nM | – | – | – | – | – | – | 2 | 4.64 | 4.38
4 | BLP-4 (bispecific antibody, human IgG4 S228P, kappa, also called PD-1 x LAG-3 proof-of-concept BABP) heavy: not shown light: DIQMTQSPSSVSASVGDRVTITCKASQDVDTAVAWYQQKPGKAPKLLIYWASTRHTGVPSRFSGSGSGTDFTLTISSLQPEDFATYYCQQYSTFPWTFGGGTKVEIKRTVAAPSVFIFPPSDEQLKSGTASVVCLLNNFYPREAKVQWKVDNALQSGNSQESVTEQDSKDSTYSLSSTLTLSKADYEKHKVYACEVTHQGLSSPVTKSFNRGEC | 1.85 | 5.94 nM | – | – | – | – | – | – | 4.5 | 3.51 | 2.58
5 | Pembrolizumab (antibody, human IgG4 S228P, kappa, V domains shown) VH: QVQLVQSGVEVKKPGASVKVSCKASGYTFTNYYMYWVRQAPGQGLEWMGGINPSNGGTNFNEKFKNRVTLTTDSSTTTAYMELKSLQFDDTAVYYCARRDYRFDMGFDYWGQGTTVTVSS VL: EIVLTQSPATLSLSPGERATLSCRASKGVSTSGYSYLHWYQQKPGQAPRLLIYLASYLESGVPARFSGSGSGTDFTLTISSLEPEDFAVYYCQHSRDLPLTFGGGTKVEIKR | – | 1.15 nM | – | – | – | – | – | – | – | – | –
6 | BLP-19 (bispecific antibody, human IgG4 S228P, kappa, also called PD-1 x LAG-3 BABP) heavy: not shown light: EVQLVESGGGLVQPGGSLRLSCAASGYTYGGYCMGWFRQAPGKGLEGVSTINSDGSTNYADSVKGRFTISRDNSKNTLYLQMNSLRAEDTAVYYCAVDLAPCWVAGPIEAADFGYWGQGTLVTVSSEPKSSDKTHTSPPSPDIQMTQSPSSVSASVGDRVTITCKASQDVDTAVAWYQQKPGKAPKLLIYWASTRHTGVPSRFSGSGSGTDFTLTISSLQPEDFATYYCQQYSTFPWTFGGGTKVEIKRTVAAPSVFIFPPSDEQLKSGTASVVCLLNNFYPREAKVQWKVDNALQSGNSQESVTEQDSKDSTYSLSSTLTLSKADYEKHKVYACEVTHQGLSSPVTKSFNRGEC | 1.57 | 3.65 nM | 1.4 | 4 | 14.6 | 13.5 | 21 | 44.6 | – | – | –
7 | BLP-15 (bispecific antibody, human IgG4 S228P, kappa, also called PD-1 x LAG-3 BABP) heavy: not shown light: EVQLVESGGGLVQPGGSLRLSCAASGYTVSSYCMGWFRQAPGKGREGVSAIDSDGSVSYADSVKGRFTISKDNSKNTLYLQMNSLRAEDTAVYFCAADLCWVDQDQGEYNTWGQGTLVTVSSEPKSSDKTHTSPPSPDIQMTQSPSSVSASVGDRVTITCKASQDVDTAVAWYQQKPGKAPKLLIYWASTRHTGVPSRFSGSGSGTDFTLTISSLQPEDFATYYCQQYSTFPWTFGGGTKVEIKRTVAAPSVFIFPPSDEQLKSGTASVVCLLNNFYPREAKVQWKVDNALQSGNSQESVTEQDSKDSTYSLSSTLTLSKADYEKHKVYACEVTHQGLSSPVTKSFNRGEC | 5.12 | 3.32 nM | – | 4.4 | 13.7 | – | 18.5 | – | – | – | –
8 | PD1-BM-min (antibody, human IgG4 S228P, kappa, V domains shown, Full-length anti-PD-1 antibody, parental element of the BLP constructs; also called PD-BM-min; anti-PD-1 full-length antibody) VH: EVQLVESGGGLVQPGGSLRLSCAASGFVFSRYDMAWVRQAPGKGLEWVSFISGGGSNTYYPDTVKGRFTISRDNSKNTLYLQMNSLRAEDTAVYYCISPYYYAMEYWGQGTTVTVSS VL: DIQMTQSPSSVSASVGDRVTITCKASQDVDTAVAWYQQKPGKAPKLLIYWASTRHTGVPSRFSGSGSGTDFTLTISSLQPEDFATYYCQQYSTFPWTFGGGTKVEIKR | – | 1.34 nM and 1.21 nM | – | 2.3 | 6.27 | – | 9.56 | – | 1.4 | 2.44 | 1.72
9 | BLP-38 (bispecific antibody, human IgG4 S228P, kappa, also called PD-1 x LAG-3 BABP) heavy: not shown light: EPKSSDKTHTSPPSPEVQLVESGGGLVQPGGSLRLSCAASGYTVSSYCMGWFRQAPGKGREGVSAIDSDGSVSYADSVKGRFTISKDNSKNTLYLQMNSLRAEDTAVYFCAADLCWVDQDQGEYNTWGQGTLVTVSSDIQMTQSPSSVSASVGDRVTITCKASQDVDTAVAWYQQKPGKAPKLLIYWASTRHTGVPSRFSGSGSGTDFTLTISSLQPEDFATYYCQQYSTFPWTFGGGTKVEIKRTVAAPSVFIFPPSDEQLKSGTASVVCLLNNFYPREAKVQWKVDNALQSGNSQESVTEQDSKDSTYSLSSTLTLSKADYEKHKVYACEVTHQGLSSPVTKSFNRGEC | 3.83 | 1.25 nM | – | 2.5 | 8.51 | – | 12.4 | – | – | – | –
